Legend:
[1] = molecular target: T1, human Claudin18.1 (CLDN18.1) (human, UniProt P56856 1-261); assay: FACS on CHOK1-18.1 cells;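 on FACS MFI: test antibody binding to the cells detected by flow cytometry using a fluorescent dye-labelled secondary antibody, read out as median fluorescence intensity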;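 on result: antibody binding to cells detected with a fluorescently labelled secondary antibody, read out as median fluorescence intensity (MFI) by flow cytometry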
T1 construct: whole, on cells; also called human Claudine18.1
Description: (§1) The specificity and cross-reactivity of these subclones were confirmed with FACs analysis. […] Fluorescent dye-conjugated secondary antibody was used to detect the binding of the primary antibody with the cells. Median fluorescence intensity (MFI) was measured by FACs analysis.

[2] = molecular target: T1, human Claudin18.1 (CLDN18.1); assay: FACS on CHOK1-18.1 cells; remark: listed apart in the source;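 on FACS MFI: test antibody binding to the cells detected by flow cytometry using a fluorescent dye-labelled secondary antibody, read out as median fluorescence intensity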;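 on result: antibody binding to cells detected with a fluorescently labelled secondary antibody, read out as median fluorescence intensity (MFI) by flow cytometry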
Description: as §1

[3] = molecular target: T2, human Claudin18.2 (CLDN18.2) (human, UniProt P56856 1-261); assay: FACS on CHOK1-18.2 cells;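 on FACS MFI: antibody binding to the cells detected with a fluorescently labelled secondary antibody and read out as median fluorescence intensity by flow cytometry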
T2 construct: the cell line is named under assay; also called human Claudine18.2; hClaudin18.2
Description: as §1

[4] = molecular target: T2, human Claudin18.2 (CLDN18.2); assay: FACS on CHOK1-18.2 cells; remark: listed apart in the source;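 on FACS MFI: antibody binding to the cells detected with a fluorescently labelled secondary antibody and read out as median fluorescence intensity by flow cytometry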
[5] = molecular target: T2, human Claudin18.2 (CLDN18.2); assay: FACS on GAXC031 cells, antibody at 50 µg/ml
[6] = molecular target: T2, human Claudin18.2 (CLDN18.2); assay: FACS on CHOK1-18.2 cells, antibody at 50 µg/ml

| Binder | binding result [1] | FACS MFI [2] | FACS MFI [3] | EC50 [4] [nM] | MAX MFI [5] | MAX MFI [6] |
| --- | --- | --- | --- | --- | --- | --- |
| Ab24 (antibody, V domains shown, mouse monoclonal (hybridoma)) VH: EVKLVESGGGLVKPGGSLKLSCAGSGFTFSSYTMSWVRQTPEKRLEWVATITIGVNIYYLDSVKGRFTISRDNAKNTLYLQMNSLRSEDTALYYCTRLGQTQRNAMDYWGQGTSVTVSS VL: DIVMTQSPTSLSVSAGEKVTMTCKSSQSLFNSGNQKNYLAWYQEKPGQPPKLLIYGASTRESGVPDRFTGSGSGTDFTLTISSVQAEDLAVYYCQNVHFYPFTFGAGTKLEL | no binding | 80.8 | 10100 |  |  |  |
| Ab09 (antibody, V domains shown, mouse monoclonal (hybridoma)) VH: EVQLQQSGPELVKPGTSVKMSCKASGYTFTDYNMHWVKLSHGKSLEWIGYINPNNGGTIYNQRFKGKATLTVNKSSRTAYMDLRSLTSEDSAVYYCARQGYYGNSMDYWGQGNSVTVSS VL: DIVMTQSPSSLTVTPGERVTMSCKSSQSLLNGGNQRNYLTWYQQKPGQPPKLLIYWASTRESGVPDRFAGSGSGTDFTLTISRVQAEDLSFYYCQNSYFYPFTFGSGTKLDLR | no binding | 95.6 | 17100 |  |  |  |
| Ab25 (antibody, V domains shown, mouse monoclonal (hybridoma)) VH: EAQLQQSGPELVKPGASVKIFCKASGYTFTDYYINWVKQSHGKSLEWIGDINPNNGGTTYNQKFKGKATLTVDKSSSTASMELRRLTSEDSSVYYCARRDAMDYWGQGTSVTVSS VL: DIVMTQSQKFMSTTVGDRVSITCTASQNVGPAVAWYQQKPGQSPKLLIYSASRRFTGVPDRFTGSGSGTVFTLTINNVQSEDLADYFCQQYISYPLTFGAGTKLELK | no binding | 82.3 | 12600 |  |  |  |
| Ab06 (antibody, V domains shown, mouse monoclonal (hybridoma)) VH: EVQLVASGGGLVKPGGSLKLSCAASGITFRSYAMSWVRQTPEKRLEWVATITDGGSYIFYPDNVKGRFTISGDHAKNNLYLQMSHLKSEDTALYFCVRLYYGNSFAYWGQGTLVTVSA VL: DIVMTQSPSSLTVTAGEKVTLNCKSSQSLFNSGNQKNYLTWYQQKPGQPPKLLIYWASTRESGVPDRFTGSGSGTDFTLTFSSVQAEDLAVYYCQNAYIYPFTFGSGTKLEIK | no binding | 789 | 46100 |  |  |  |
| Ab08 (antibody, V domains shown, mouse monoclonal (hybridoma)) VH: QVQLQQPGAELVKPGASVKLSCKASGYTFTSYLLHWVKQRPGQGLEWIGMIHPNGGSTNYNEKFKTKATLTVDKSSSTAYMQLSSLTSEDSAVYYCAPVYFGNSFAYWGQGTLVTVSA VL: DIVMTQSPSSLTVTAGEKVTMSCKSSQSLLNSGNQKNYLTWYQQKPGQPPKLLIYWASTRESGVPDRFTGSGSGTDFTLTISSVQAEDLAVYYCQNDYYYPFTFGSGTKLEKK | no binding | 97 | 19400 |  |  |  |
| Ab17 (antibody, V domains shown, mouse monoclonal (hybridoma)) VH: QVQLKESGPGLVAPSQSLSITCTVSGFSLTSYAISWVRQPPGKGLEWLGEIWTGGGTNYNSALKSRLSISKDNSKSQVFLKMNSLQTDDTARYYCGRLSYGNSLDYWGQGTTLTVSS VL: DIVMTQSPSSLTVTAGEKVTMSCKSSQSLLNSGNQKNYLTWYQQKPGQPPKLLIYWASTRESGVPDRFTGSGSGTDFTLTVSSVQAEDLAVYYCQNNFIYPLTFGPGTKLELK | no binding | 82.3 | 11500 |  |  |  |
| Ab14 (antibody, V domains shown, mouse monoclonal (hybridoma)) VH: QVQLQQPGAELVKPGASVKLSCKASGYTFTSYLLHWVKQRPGQGLEWIGMIHPNGGSTNYNEKFKTKATLTVDKSSSTAYMQLSSLTSEDSAVYYCAPVYFGNSFAYWGQGTLVTVSA VL: DIVMTQSPSSLTVTAGEKVTMSCKSSQSLLNSGNQKNYLTWYQQKPGQPPKLLIYWASTRESGVPDRFTGSGSGTDFTLTISSVQAEDLAVYYCQNDYYYPFTFGSGTKLEKK | no binding | 97 | 21400 |  |  |  |
| Ab18 (antibody, V domains shown, mouse monoclonal (hybridoma)) VH: QVQLKESGPGLVAPSQSLSITCTVSGFSLTTYGINWVRQPPGKGLEWLGVIWGDGSTNYHSALISRLSISKDNSKSQVFLKLNSLQTDDTATYYCVKSSYYGNAMDYWGQGTSVTVSS VL: DIVMTQSPSSLTVTAGETVTMSCKSSQSLLNSGNQKNYLTWYQQKPGQPPKLLIYWASTRESGVPDRFTGSGSGTDFTLTISSVQAEDLAVYYCQNVYSYPFTFGSGTKLEI | no binding | 79.4 | 9910 |  |  |  |
| Ab12 (antibody, V domains shown, mouse monoclonal (hybridoma)) VH: EVMLVESGGGLVKPGGSLKLSCAASGFTFSSYTMSWVRQTPEKRLEWVATIIGGYGNTYYADSVKGRFTISRDSAKNTLYLQMLSLRSEDTALYYCTRLGQTQRNAMDYWGQGTSVTVSS VL: DILMTQSPSSLSVSAGEKVTMSCKSSQSLLNSGNQRNYLAWYQQKPGQPPKLLIYGASTRESGVPDRFTGSGSGTDFTLTISSVQAEDLAVYYCQNDYYYPLTFGAGTKLELK | no binding | 83.8 | 8820 |  |  |  |
| Ab13 (antibody, V domains shown, mouse monoclonal (hybridoma)) VH: EVRLVESGGGLVKPGGSLKLSCAGSGFTFSSYTMSWVRQTPEKRLEWVATITIGVNIYYLDSVKGRFTISRDNAKNTLYLQMNSLRSEDTALYYCTRLGQTQRNAMDYWGQGTSVTVSS VL: DIVMTQSPTSLSVSAGEKVTMTCKSSQSLLNSGNQKNYLAWYQEKPGQPPKLLIYGASTRESGVPDRFTGSGSGTDFTLTISSVQAEDLAVYYCQNNHFYPLTFGAGTKLELK | no binding | 82.3 | 7460 |  |  |  |
| Ab15 (antibody, V domains shown, mouse monoclonal (hybridoma); also called mAb Ab15) VH: EVMLVESGGDLVKPGGSLKLSCAASGFTFSTYTMSWVRQTPEKRLEWVATIVGGGGYTYYLDSVKGRFTISRDNAKNTLYLQMISLRSEDTALYYCARMGLTQRNALDYWGQGTSITVSS VL: DIVMTQSPSSLSVSEGEKVTLNCKSSQSLFNSGNQKNYLAWYQQKPGQPPKLLIYGASTRESGVPDRFTGSGFGTDFTLTISSVQAEDLAVYYCQNDHTYPLTFGAGAKLELK | no binding | 80.8 | 7390 |  |  |  |
| Ab16 (antibody, V domains shown, mouse monoclonal (hybridoma)) VH: EVMLVESGGGLVKPGGSLKLSCAASGFTFNSYTMSWVRQTPEKRLEWVATITVIGGNTYYLDSVKGRFTISIDNGKNTLYLQMSSLRSEDTALYYCARMGQTQRNAMDYWGQGTSVTVSS VL: DIVMTQSPSSLSVSAGQKVTMRCKSSQSLLNSGNQKNYLAWYQQKLGQPPKLLIYGASTRESGVPDRFSGSGSGTDFTLTITSVQAEDLAVYYCQNDYSFPLTFGAGTKLELK | no binding | 80.8 | 8170 |  |  |  |
| Ab02 (antibody, V domains shown, mouse monoclonal (hybridoma)) VH: QVQLKESGPGLVAPSQSLSITCTVSGFSLTSYAINWVRQPPGKGLEWLGVIWTGGGTNYNSALKSRLSINKDNSKSQVFLKMNSLQTDDTARYYCARFYDGYYSWFAYWGQGTLVTVSA VL: DIVMTQSHKFMSTSVGDRVSITCKASQDVGTAVTWYQQKPGQSPKLLIYWASTRHTGVPDRFTGSGSGTDFTLTISNVQSEDLADYFCQQYSSYPFTFGSGTKLEIK | no binding | 101 | 1380 |  |  |  |
| chAb04 (antibody, V domains shown) VH: EVQLQQSGPELVKPGASVKMSCMASGYTFTDYNIHWVKRSHGSRLEWIGYISPISGGAGYNQKFMDKATLTVDKSSNTAYMELRSLTSEDSAVYYCTRGDYWGQGTTLTVSS VL: DIVMTQSPSSLAVTVGEKVTMSCKSSQSLLNSGNQKNYLTWYQQKPGQPPKLLIYWASTRKSGVPDRFTGSGSGTDFTLTISSVQAEDLGIYYCLNDYGFPLTFGAGSKLELK |  |  |  | 2.14 | 3860 | 75300 |
| Ab11 (antibody, V domains shown, mouse monoclonal (hybridoma)) VH: EVMLVESGGDLVKPGGSLKLSCAASGFTFSRYTMSWVRQTPEKRLEWVATVSVGSGNTYYLDSVKGRFTISRDNAKNTLFLQMNSLRSEDTALYYCTRLGQTQRNAVDYWGQGTSVTVSS VL: DIVMTQSPSFLSVSAGEKVTMSCKSSQSLFNGGNQKNYLAWYQQKPGQPPKLLIYGASTRDSGVPDRFTGSGSGTDFTLTISNVQAEDLAIYFCQNDHSFPLTFGAGTKLELK | no binding | 80.8 | 9800 |  |  |  |
| Ab19 (antibody, V domains shown, mouse monoclonal (hybridoma)) VH: EVMLVESGGDLVKPGGSLKLSCAASGFSFSRYTMSWVRQTPEKRLEWVATVSVGSGNTYYLDSVKGRFTISRDNAKNTLFLQMSSLRSEDTALYYCARMGQTQRNAVDYWGQGTSVTVSS VL: DIVMTQSPSSLSVSAGEKVTMSCKSSQSLFNSGNQKNYLAWYQQKPGQPPKLLIYGASTRESGVPDRFTGSGSGTDFTLTISNVQAEDLAVYLCQNDHSFPLTFGAGTKLEL | no binding | 80.8 | 7340 |  |  |  |
| Ab07 (antibody, V domains shown, mouse monoclonal (hybridoma)) VH: EVQLQQSGPELVKPGASVKISCKASGYSFTDYFMNWVKQSHGKGLEWIGRINPYNGDTFYNQKFKGKATLTVDKSSSTAHMELLSLTSEDFAVYYCALYDGYWGAFVYWGQGTLVTVSA VL: DIQMTQSPASLSVFVGETVTITCRASENIYSNLAWYQQKQGKSPQLLVYAATNLADGVPSRFSGSGSGTQYSLKINSLQSEDFGSYYCQHFWGTPLTFGAGTKLELK | no binding | 764 | 13700 |  |  |  |

From patent US20230095569A1 (ANTENGENE BIOLOGICS, published 2023)
